In paper doi:10.1101/2022.11.30.518472:

Experiments:
[1] = target: Uso1 CCD-His6x (pET21b-Uso1 CCD-His6x), coiled-coil domain (CC + CTR) (Aspergillus nidulans); assay: AUC + other: dynamic light scattering
[2] = target: Uso1(E6K/G540S)-His6x, full length (pET21b-Uso1(E6K/G540S)-His6x) (Aspergillus nidulans); assay: AUC + other: dynamic light scattering
[3] = target: Bos1-GST (pET21b-Bos1-GST), cytoplasmic domain of Bos1 (Aspergillus nidulans); assay: pull-down
[4] = target: Uso1(E6K/G540S)ΔCTR-His6x (pET21b-Uso1(E6K/G540S)ΔCTR-His6x) (Aspergillus nidulans); assay: AUC + other: dynamic light scattering
[5] = target: Uso1-HA3, full length, native protein of Aspergillus (Aspergillus nidulans); assay: SEC
[6] = target: Uso1-His6x, full length (pET21b-Uso1-His6x) (Aspergillus nidulans); assay: AUC + other: dynamic light scattering
[7] = target: Uso1-His6x, full length (pET21b-Uso1-His6x) (Aspergillus nidulans); assay: SEC
[8] = target: Bet1-GST (pET21b-Bet1-GST), cytoplasmic domain of Bet1 (Aspergillus nidulans); assay: pull-down
[9] = target: Uso1ΔCTR-His6x (pET21b-Uso1ΔCTR-His6x) (Aspergillus nidulans); assay: AUC + other: dynamic light scattering

Uso1 CCD-His6x (pET21b-Uso1 CCD-His6x), coiled-coil domain (CC + CTR) (domain or fragment)
stoichiometry N [1]: 2

Uso1(E6K/G540S)-His6x, full length (pET21b-Uso1(E6K/G540S)-His6x) (natural protein)
stoichiometry N [2]: 2 | fold increase of the protein retained, against wild-type Uso1 [3]: 5 fold

Uso1(E6K/G540S)ΔCTR-His6x (pET21b-Uso1(E6K/G540S)ΔCTR-His6x) (domain or fragment)
stoichiometry N [4]: 2

Uso1-HA3, full length, native protein of Aspergillus (natural protein)
stoichiometry N [5]: 2

Uso1-His6x, full length (pET21b-Uso1-His6x) (natural protein)
stoichiometry N [6]: 2 | stoichiometry N [7]: 2 | percent of the prey pulled down [8]: 70%

Uso1ΔCTR-His6x (pET21b-Uso1ΔCTR-His6x) (domain or fragment)
stoichiometry N [9]: 2
